Patent CN115850461A (INST MICROBIOLOGY CAS, dated 2023)

Columns and labels:
Test in all cases: cell-based or functional assay
[1] = molecular target: SARS-CoV-2 Omicron BA.1 假病毒 S蛋白 (SARS-CoV-2 (Omicron BA.1))
SARS-CoV-2 Beta 假病毒 S蛋白 = SARS-CoV-2 Beta 假病毒 S蛋白 (SARS-CoV-2 (Beta))
[2] = molecular target: SARS-CoV-2 Omicron BA.2 假病毒 S蛋白 (SARS-CoV-2 (Omicron BA.2))
[3] = molecular target: SARS-CoV-2 Omicron BA.2.75 假病毒 S蛋白 (SARS-CoV-2 (Omicron BA.2.75))
[4] = molecular target: SARS-CoV-2 Omicron BA.4/5 假病毒 S蛋白 (SARS-CoV-2 (Omicron BA.4/5))
SARS-CoV-2 Delta 假病毒 S蛋白 = SARS-CoV-2 Delta 假病毒 S蛋白 (SARS-CoV-2 (Delta))
SARS-CoV-2 Alpha 假病毒 S蛋白 = SARS-CoV-2 Alpha 假病毒 S蛋白 (SARS-CoV-2 (Alpha))
[5] = molecular target: SARS-CoV-2 Omicron BA.1.1 假病毒 S蛋白 (SARS-CoV-2 (Omicron BA.1.1))

B1: 沙贝病毒广谱人源中和抗体74 (antibody, V domains shown)
VH: QVQLVQSGAQLKKPGESLKISCKGSGYNFSRYWIAWVRHMPGKGLEVMGIIYPDDSDTRYSPSVRGQVTISADKSTSIVYLQWSSLKASDTGIYYCARFGAGMTGMPRYFDTTRWFDPWGQGTQVTVSS
VL: QSVLTQPPSVSGAPGQRVTISCLGGSSNIGAGYDVHWYQHLPGAAPKLLISGNSNRPSGVPARFSGSKSGTSASLAITGLQAEDEADYYCQSYDNDLSQVFGGGTKLTVLG
IC50, 假病毒中和 [1]: 0.91 µg/mL
IC50, 假病毒中和 (SARS-CoV-2 Beta 假病毒 S蛋白): 1.62 µg/mL
IC50, 假病毒中和 [2]: 3.49 µg/mL
IC50, 假病毒中和 [3]: 1.7 µg/mL
IC50, 假病毒中和 [4]: 2.81 µg/mL
IC50, 假病毒中和 (SARS-CoV-2 Delta 假病毒 S蛋白): 1.7 µg/mL
IC50, 假病毒中和 (SARS-CoV-2 Alpha 假病毒 S蛋白): 0.76 µg/mL
IC50, 假病毒中和 [5]: 0.2 µg/mL
